Measurements: the domain aggregation screens of Martell et al. (2025)

Assay: soluble fraction after stress (log2 fold change); higher = more stays soluble; pooled small domains, quantitative proteomics
Conditions: stress: 75 degC
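Note: 20 min heating vs room temperature control held 20 min.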

Sequence	soluble fraction (log2)
HMPEVTMSYSARNQVVSFSKATQYEIVDEFGTVVLRGVGNQATLRYLSRGDYFVNFGAGTEVLKK	-0.0464
HMPEVYSFEVNEGAAGKRLDIFLSGEIEGLTRSFIQKLISEGMATVNQEPPRASYRVKTRDLVELQIPDPE	-0.334
HMPFDWSAFDWKGWADEALAIIKTANQDQMNKWTEDNEKIIVQAETAAPDIYKTVGDEYDKKMESFN	0.0145
HMPFESEMKHWIHLFAHELNLKVSDKYTQKIIEIFGNNFSEIFNEMSKSSLVSSNEKDLLNALEKSGNIH	-0.799
HMPFGIYGGKVSSLDDLKDKAAVLVPNDVSNEARALLLLEAQGLIKLKEGVGLEATRNDIVEN	≥ 1.04
HMPFTLDGVNEGSRNDQAARMSGYLISKNLNMDFIKFFMQSWNRQNSPPLSQREINSVVDNVKRTHDRKNK	-1.88
HMPGKVSDAGATAKDNRLFLEAVFWRVRTGSPWRDLPPAFGHWNSQFRRFRRWAKAGVFESLFNA	0.182
HMPGRKKLAIIYKNDYIGAFNLADSYRDSYEVSMYAFPKKVGKLLNRLELQGFNAYVIYDKDNEENNFNTI	-1.82
HMPGSGELSRRLELAIRDRTAVRVTAAAAGQERSFTLLPVAITSGRLRATDEQAGVQRTLPLSAIVAVEA	-0.179
HMPGTEAQDGEVLLDALRRIHPDSSTGTLRRMLTQGRVQVDGTTVHAAKAELTSGQHVEVVAR	0.136
HMPIDIEPVLQWIRDNSIDGIGPARSMYHSAAAAAGLPSYSSLQLRKWTWPLLLDAAGVQRR	-0.427
HMPIRMLQVQKTNTGYLNVRDTPSVSGALIGKVFPGDMLSSTEERDGWFLVAVPQGGTGWVSGDYVKTTS	-0.191
HMPKAPHETLSRREMEVLLLLSEGVTLTRIGDTIHVSVKTVSTYRARILQKLDLQSNAELTRYVLQHKL	-5.8
HMPKHDWDAFAGAIARRVHDHGMPVSQGELVRDMMDWFAGRKDFPPPDERTVRRKVSAIWRELNG	-1.38
HMPKIPRLTLTETAGIMGVSQRALALAIQQGMYSWAQALPGRNKKRPIYFINAITFAKAQGIDLEEYK	-1.13
HMPKKLIWERTTSKLQLYITQDRYELKTPLMTIPFTSKSKMMVYLQQRYHLDMQEYRQIYDAG	-2.28
HMPKMDGLTVMEQVNQDHFVNKRPYFIVITAVGQEKITEDAFNKGANYYVMKPFNNNMLLERIKSVRK	0.642
HMPKYLNIYHELAQRIQEGALPAETKLPSETELMQEFEASRGTVRKAIDALQEKGFVRKHQGKGVFVLSQ	-0.00712
HMPLDYNELRSISPKAARQAILQILAANKGNVSATAKLLGVSRKTVYKAMHKKASGNLDDTSRAPK	-1.74
HMPLITAIELDSISARSFQFNTQSGSTYFIEGSTDLKSWDVIAEVKATDSTTTYEDHRKIYHEAYFYRVRL	-1.84
HMPLITDIKIQVKNTEKVSLFVDGKYSFSLTISQLAEHKILKTNQEISAKQVAEFKKLSNLTNLYIRIVG	-0.305
HMPLITLSAEIQSEQIGQRLDQTLAELFPEYSRSRLKTWIEADLVKLNNQIVNIPREKVLGGEHVEITVDI	-1.09
HMPLNRFLNLPHEDKERVLLIAKKQFSTHGYDAMSLNLLLKELDISKGQFYYWFEDKADLFFTVL	-0.11
HMPLRPNQRQFIHLMVYQGLDRNEAYAQANNKVLTEENYESIRTAAAKTFYTPHVNNYYHALMEEIRDRE	-0.471
HMPLSVRQRMSDILSNLKTSDFTNFADLFDPKEGRTGITVTFIAILELLREFLIEVVQSDHYQPLHVRAAS	-0.213
HMPLTAASLQTYLRGVDYPASKQDLIAHARKSDAPEDAITVLEQYSEQTYRSAADVSAEFGS	0.109
HMPLTEMAVRKHLSAELAQKGYTIDPRALEILLQRTNTNLTAIANELPKLLLVAEDKQITVNEVSAM	-0.319
HMPLTKKLETLFSLFPKYEKELKKKGVTRIHVWANYKEEYPDGIGRSQFIHYYSFWKKQVSP	-0.154
HMPLVIIRGIEGVFSSEEKAEAIRKVTDALVSVKGENVRGFAWVVFEEVKSGDWGIGGESITAEKVIMSL	0.158
HMPMDDETWDALSLFAYKRYARENGWPLMIGAEALRDTFASYFPLDSSTWQDRSSHYLTYQDGIYTRT	-0.247
